Assay [1] deals with T1, 重组人CD47-his蛋白 (ACRO biosystems, cat#CD7-H5227) (human, UniProt Q08722 19-139, biotin-labelled in the ELISA assays (site not stated)).
T1 construct: Bought protein; also called 人CD47蛋白; 人CD47-生物素; not shown: his tag
Description: SPR (Biacore T200), antibody captured by goat anti-mouse IgG on a CM5 chip, CD47-his as analyte.

In assay [2] the target is T2, 人CD47 (表面过表达人CD47的293F细胞) (human, UniProt Q08722 19-323).
T2 construct: whole, on cells; also called 表面过表达人CD47的稳定细胞系293F
T2 sequence (Q08722 19-323): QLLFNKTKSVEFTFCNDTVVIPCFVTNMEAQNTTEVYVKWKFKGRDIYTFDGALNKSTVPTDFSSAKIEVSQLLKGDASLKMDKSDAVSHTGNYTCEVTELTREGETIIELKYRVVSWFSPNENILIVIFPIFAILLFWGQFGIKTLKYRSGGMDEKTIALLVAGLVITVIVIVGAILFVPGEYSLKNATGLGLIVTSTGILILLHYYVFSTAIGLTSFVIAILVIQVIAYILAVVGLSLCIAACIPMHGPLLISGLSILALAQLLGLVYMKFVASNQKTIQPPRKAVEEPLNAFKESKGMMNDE
Description: flow cytometry on 293F cells overexpressing human CD47.

The results in this text go back to patent CN115746133A (BOAOXIN BIOTECHNOLOGY NANJING CO LTD, dated 2023).

T1 sequence (Q08722 19-139 limits assumed): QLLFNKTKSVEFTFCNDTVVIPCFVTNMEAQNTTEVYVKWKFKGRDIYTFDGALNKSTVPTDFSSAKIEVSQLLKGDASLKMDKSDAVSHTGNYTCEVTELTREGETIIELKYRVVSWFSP

B1: 小鼠抗人CD47单克隆抗体1H10 (antibody, V domains shown)
VH: EVQLQQSGAELVRSGASVTLSCTASGFKIKDYYMNWVKQRPEQGLEWIGWIGPENGDTENGPKFQDKATMTANTSSNTAFLQLSSLTPEDTAFYYCNAGGRGGFPYWGQGTQVTVST
VL: DILLTQTPLSLPVSLGDQASFSCRSSQDIVHINGKTYLEWYLQKPGQSPKLLIYRVSNRFSGVPDRFSGSGSGTDFTLKISRVEAEDLGVYYCFQGSHVPRTFGGGTKLEIK
notes: also called 本发明的抗体1H10; 本发明的单克隆抗体1H10
As to B1, the binding result in assay [1] and in assay [2] was “binds” each time.
